According to patent publication US20240368233A1 (University of Washington, published 2024):

T1: DF202
T1 construct: Bivalent connector
T1 chain: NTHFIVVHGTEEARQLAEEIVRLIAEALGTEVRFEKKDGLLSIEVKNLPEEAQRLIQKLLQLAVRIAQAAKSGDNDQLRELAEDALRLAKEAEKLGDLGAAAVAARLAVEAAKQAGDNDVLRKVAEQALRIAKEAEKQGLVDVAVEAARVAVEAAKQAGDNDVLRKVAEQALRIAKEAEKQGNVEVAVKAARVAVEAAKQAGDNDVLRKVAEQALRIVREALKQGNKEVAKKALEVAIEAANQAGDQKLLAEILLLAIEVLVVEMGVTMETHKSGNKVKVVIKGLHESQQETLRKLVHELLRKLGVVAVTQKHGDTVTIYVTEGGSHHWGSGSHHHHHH

T2: DF206
T2 construct: Bivalent connector
T2 chain: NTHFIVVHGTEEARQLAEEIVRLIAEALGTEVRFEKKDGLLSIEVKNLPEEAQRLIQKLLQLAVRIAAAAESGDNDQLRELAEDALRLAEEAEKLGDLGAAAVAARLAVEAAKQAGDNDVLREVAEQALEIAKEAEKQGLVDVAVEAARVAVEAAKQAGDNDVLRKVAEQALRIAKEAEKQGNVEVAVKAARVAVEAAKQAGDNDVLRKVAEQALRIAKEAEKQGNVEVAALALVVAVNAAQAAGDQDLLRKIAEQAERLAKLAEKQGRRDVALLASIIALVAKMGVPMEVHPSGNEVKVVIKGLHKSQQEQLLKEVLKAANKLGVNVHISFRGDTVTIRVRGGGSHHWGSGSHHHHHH

T3: DFA-1
T3 construct: Bivalent connector
T3 chain: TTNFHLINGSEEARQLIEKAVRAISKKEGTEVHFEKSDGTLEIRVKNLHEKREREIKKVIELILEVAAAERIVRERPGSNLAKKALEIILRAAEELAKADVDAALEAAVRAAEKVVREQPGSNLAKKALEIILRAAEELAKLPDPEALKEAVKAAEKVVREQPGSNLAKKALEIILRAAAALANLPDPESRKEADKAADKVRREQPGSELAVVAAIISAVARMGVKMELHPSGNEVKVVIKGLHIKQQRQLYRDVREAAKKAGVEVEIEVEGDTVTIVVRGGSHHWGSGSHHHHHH

T4: LHD101 chainA
T4 construct: also called LHD101A
T4 chain: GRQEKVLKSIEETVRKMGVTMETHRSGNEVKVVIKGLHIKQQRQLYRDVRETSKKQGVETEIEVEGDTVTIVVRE

B1: 274A53 (designed binder)
chain: TTNFHLINGSEEARQLIEKAVRAISKKEGTEVHFEKSDGTLEIRVKNLHEKREREIKKVIELILEVAAAERIVRERPGSNLAKKALEIILRAAEELAKADVDAALEAAVRAAEKVVREQPGSNLAKKALEIILRAAEELAKLPDPEALKEAVKAAEKVVREQPGSELAKKALEIIERAAEELKKSPDPEAQKEAKKAEQKVREESGSHHWGSGLNDIFEAQKIEWHEGSHHHHHH
notes: also called LHD274A DHR53 stop; LHD274A53
B2: 101B62 (designed binder)
chain: HHHHHHGSGLNDIFEAQKIEWHEAENLYFQSGSNDEKRKRAEKALQRAQEAEKKGDVEEAVRAAQEAVRAAKESGDNDVLRKVAEQALRIAKEAEKQGNVEVAVKAARVAVEAAKQAGDNDVLRKVAEQALRIAKEALKQGNVDVAAKAAQVAEEAAKQAGDQDVLRKVKEVQIEIVLAAIELTVRKMGVTMETHRSGREVKVVIKGLHESQQEQLLEDVLRIAELAGVRVRIRFKGDTVTIVVRG
notes: also called LHD101B62

Experiments:
DF202 = target: T1, DF202; assay: SEC of mixed components; trimer listed in Table 6
DF206 = target: T2, DF206; assay: SEC of mixed components; trimer listed in Table 6
DFA-1 = target: T3, DFA-1; assay: SEC of mixed components; trimer listed in Table 6
LHD101 chainA = target: T4, LHD101 chainA; assay: BLI steady-state titration, biotinylated unfused LHD101A on a streptavidin sensor
Excerpt: FIG. 8A-E. Characterization LHD binding in vitro. A: Designed models heterodimers (top row). Middle row, SEC binding experiments performed on a Superdex™ 75 column. Bottom row, biolayer interferometry kinetic binding traces. […] C: Kinetic binding traces from BLI. Equilibrium responses were used to fit equilibrium binding curves D: Equilibrium binding curves of LHDs from biolayer interferometry binding assays with data from C. […] Biotinylated unfused protomers were immobilized on streptavidin coated biosensors.
Biolayer interferometry experiments were performed on an OctetRED96 BLI system (ForteBio, Menlo Park, CA). Streptavidin coated biosensors were first equilibrated for at least 10 minutes in Octet buffer (10 mM HEPES pH 7.4, 150 mM NaCl, 3 mM EDTA, 0.05% Surfactant P20) supplemented with 1 mg/ml Bovine Serum Albumin (SigmaAldrich). Enzymatically biotinylated designs were immobilized onto the biosensors by dipping the biosensors into a solution with 10-50 nM protein for 30-120 s. This was followed by dipping in fresh octet buffer to establish a baseline for 120 s. Titration experiments were performed at 25° C. while rotating at 1,000 r.p.m. […]

| Binder | binding result (DF202) | binding result (DF206) | binding result (DFA-1) | binding result (LHD101 chainA) |
| --- | --- | --- | --- | --- |
| B1 | binds | binds |  |  |
| B2 |  |  | binds | binds |
